B1: KGF: keratinocyte growth factor or FGF-7 (protein, UniProt P21781 32-194, looked up)
Fibroblast growth factor 7: CNDMTPEQMATNVNCSSPERHTRSYDYMEGGDIRVRRLFCRTQWYLRIDKRGKVKGTQEMKNNYNIMEIRTVAVGIVAIKGVESEFYLAMNKEGKLYAKKECNEDCNFKELILENHYNTYASAKWTHNGGEMFVALNQKGIPVRGKKTKKEQKTAHFLPMAIT
B2: Betacellulin: growth and differentiation factor (protein, UniProt P35070 32-111, looked up)
Betacellulin: DGNSTRSPETNGLLCGDPEENCAATTTQSKRKGHFSRCPKQYKHYCIKGRCRFVVAEQTPSCVCDEGYIGARCERVDLFY
B3: TGF beta sRII: TGF beta soluble receptor type 2 (protein, UniProt P37173 23-166, looked up)
extracellular domain: TIPPHVQKSVNNDMIVTDNNGAVKFPQLCKFCDVRFSTCDNQKSCMSNCSITSICEKPQEVCVAVWRKNDENITLETVCHDPKLPYHDFILEDAASPKCIMKEKKKPGETFFMCSCSSDECNDNIIFSEEYNTSNPDLLLVIFQ
modifications: extracellular domain
B4: P1GF: Placental GF, human (protein, UniProt P49763 19-221, looked up)
Placenta growth factor: LPAVPPQQWALSAGNGSSEVEVVPFQEVWGRSYCRALERLVDVVSEYPSEVEHMFSPSCVSLLRCTGCCGDENLHCVPVETANVTMQLLKIRSGDRPSYVELTFSQHVRCECRHSPGRQSPDMPGDFRADAPSFLPPRRSLPMLFRMEWGCALTGSQSAVWPSSPVPEEIPRMHPGRNGKKQQRKPLREKMKPERCGDAVPRR
B5: Prolactin: A growth factor with strong structural similarity to growth hormone (protein, UniProt P01236 29-227, looked up)
Prolactin: LPICPGGAARCQVTLRDLFDRAVVLSHYIHNLSSEMFSEFDKRYTHGRGFITKAINSCHTSSLATPEDKEQAQQMNQKDFLSLIVSILRSWNEPLYHLVTEVRGMQEAPEAILSKAVEIEEQTKRLLEGMELIVSQVHPETKENEIYPVWSGLPSLQMADEESRLSAYYNLLHCLRRDSHKIDNYLKLLKCRIIHNNNC
B6: Activin A: growth and differentiation factor (protein, UniProt P08476 311-426, looked up)
Inhibin beta A chain: GLECDGKVNICCKKQFFVSFKDIGWNDWIIAPSGYHANYCEGECPSHIAGTSGSSLSFHSTVINHYRMRGHSPFANLKSCCVPTKLRPMSMLYYDDGQNIIKKDIQNMIVEECGCS
B7: Soybean Trypsin Inhibitor: A high-molecular-weight protein (approximately 22,500) containing 198 amino acid residues (protein, UniProt P01070 25-205, looked up)
Trypsin inhibitor A: DFVLDNEGNPLENGGTYYILSDITAFGGIRAAPTGNERCPLTVVQSRNELDKGIGTIISSPYRIRFIAEGHPLSLKFDSFAVIMLCVGIPTEWSVVEDLPEGPAVKIGENKDAMDGWFRLERVSDDEFNNYKLVFCPQQAEDDKCGDIGISIDHDDGTRRLVVSKNKPLVVQFQKLDKESL
B8: BMP-4: Bone Morphogenic Protein (protein, UniProt P12644 293-408, looked up)
Bone morphogenetic protein 4: SPKHHSQRARKKNKNCRRHSLYVDFSDVGWNDWIVAPPGYQAFYCHGDCPFPLADHLNSTNHAIVQTLVNSVNSSIPKACCVPTELSAISMLYLDEYDKVVLKNYQEMVVEGCGCR

Tested on: conversion of stem cells into insulin producing cells
Format: cell-based
Details: statistical analysis of insulin content of supernatants, 3 donors, combinatorial array in alginate

Molecule	effect on the conversion of stem cells into insulin producing cells
B1	potential positive effect
B2	potential positive effect
B3	potential positive effect
B4	potential negative effect
B5	potential negative effect
B6	potential negative effect
B7	potential negative effect
B8	potential negative effect
